Series [1] relates to Saccharomyces cerevisiae. The series is described as follows: protein stability index of tFT-peptide fusion in deletion strain of DAS1 (PSI (0-1 scale)); higher = more stable (slower turnover). As to the method: (§1)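 MPS profiling in S. cerevisiae of two library types built from selected 12-aa C-degron peptides (IN1, IN2, LN1, LN3, VN2, R1-R5, W1-W3, Atg1 and Rpa12 C-termini): saturation mutagenesis libraries and C-terminal +1 capping libraries (13 aa). Each peptide is fused to the C-terminus of a sfGFP-mCherry timer, after a GGGS linker. Cells are FACS-sorted into 8 mCherry/sfGFP bins and sequenced. PSI runs from 0 (unstable) to 1 (stable), measured once in wild type and in the das1Δ or doa10Δ background.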

The test system of series [2] is Saccharomyces cerevisiae. Description: protein stability index of tFT-peptide fusion in wild type (PSI (0-1 scale)); higher = more stable (slower turnover). Conditions: genetic background: wild type. How it is done: as §1

Protein stability index data for 44 sequences are collected here from the supplement of paper PMC10724198.
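For protein stability index of tFT-peptide fusion in deletion strain of DAS1 in this document: PSI is a weighted mean of each variant's read distribution over the sorted stability bins, computed only for variants having over 10 reads in total.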
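For protein stability index of tFT-peptide fusion in wild type in this document: PSI derived as read-weighted mean over the 8 sorting bins, only variants exceeding 10 total reads kept, mCherry placed adjacent to the peptide and sfGFP distal.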

Turning to LVVYLSCVACINN, the protein stability index in the series on Saccharomyces cerevisiae [1] turned out to be 0.037; in the series with Saccharomyces cerevisiae [2], 0.0233.
For LVVYLSCVACIR, in that order: 0.0325 and 0.0163.
For LVVYLSCVACIY, in that order: 0.0359 and 0.0122.
For LVVYLSCVARIN, in that order: 0.0375 and 0.0258.
Turning to LVVYLSCVATIN, the protein stability index is 0.0278 with Saccharomyces cerevisiae [1] and 0.0174 with Saccharomyces cerevisiae [2].
For LVVYLSCVAVIN, in that order: 0.0276 and 0.0169.
For LVVYLSCVCCIN, the protein stability index came to 0.415 in the series on Saccharomyces cerevisiae [1] and 0.461 with Saccharomyces cerevisiae [2].
For LVVYLSCVVCIN, in that order: 0.0986 and 0.0309.
For LVVYLSKVACIN, in that order: 0.38 and 0.0955.
As to LVVYLSTVACIN, the results for the protein stability index in the series on Saccharomyces cerevisiae [1] and with Saccharomyces cerevisiae [2] were 0.161 and 0.0656, respectively.
For the sequence LVVYLSWVACIN, the protein stability index with Saccharomyces cerevisiae [1] is 0.0348; in the series on Saccharomyces cerevisiae [2] it was 0.0137.
Regarding LVVYPSCVACIN, the protein stability index in the series on Saccharomyces cerevisiae [1] amounted to 0.337; in the series with Saccharomyces cerevisiae [2], 0.248.
For LVVYVSCVACIN, in that order: 0.0341 and 0.0192.
For LVVYWSCVACIN, in that order: 0.0704 and 0.0151.
For NLIQPLPVQFLN, in that order: 0.582 and 0.0875.
On to NRWRVGLWRGAS, for which the results for the protein stability index in the series with Saccharomyces cerevisiae [1] and in the series on Saccharomyces cerevisiae [2] were 0.685 and 0.454, respectively.
For PDHRNHLIKLLN, in that order: 0.589 and 0.0948.
For PDKANHLIKLLN, in that order: 0.594 and 0.183.
For PDKGNHLIKLLN, in that order: 0.635 and 0.23.
With PDKINHLIKLLN, the protein stability index in the series with Saccharomyces cerevisiae [1] is 0.578; in the series on Saccharomyces cerevisiae [2], 0.135.
As to PDKRDHLIKLLN, the protein stability index in the series on Saccharomyces cerevisiae [1] amounted to 0.599; in the series with Saccharomyces cerevisiae [2], 0.105.
For PDKRMHLIKLLN, in that order: 0.592 and 0.0774.
For PDKRNALIKLLN, in that order: 0.629 and 0.142.
As to PDKRNDLIKLLN, the protein stability index came out at 0.626 in the series on Saccharomyces cerevisiae [1] and 0.184 in the series with Saccharomyces cerevisiae [2].
For PDKRNHLAKLLN, in that order: 0.547 and 0.0907.
For PDKRNHLGKLLN, in that order: 0.593 and 0.428.
For PDKRNHLIKGLN, in that order: 0.619 and 0.546.
As to PDKRNHLIKLGN, the results for the protein stability index in the series on Saccharomyces cerevisiae [1] and in the series on Saccharomyces cerevisiae [2] were 0.605 and 0.617, respectively.
Turning to PDKRNHLIKLLA, the protein stability index with Saccharomyces cerevisiae [1] was 0.57; with Saccharomyces cerevisiae [2], 0.114.
For PDKRNHLIKLLC, in that order: 0.577 and 0.0722.
For PDKRNHLIKLLF, in that order: 0.576 and 0.269.
For PDKRNHLIKLLNQ, in that order: 0.667 and 0.316.
Regarding PDKRNHLIKLLNR, the figures for the protein stability index in the series on Saccharomyces cerevisiae [1] and with Saccharomyces cerevisiae [2] were 0.668 and 0.652, respectively.
For PDKRNHLIKLLNV, in that order: 0.659 and 0.203.
For PDKRNHLIKLLS, in that order: 0.653 and 0.102.
For PDKRNHLTKLLN, in that order: 0.584 and 0.17.
Consider PDKRNHSIKLLN, for which the protein stability index in the series on Saccharomyces cerevisiae [1] was 0.631; in the series on Saccharomyces cerevisiae [2] it was 0.174.
For PDKRNHTIKLLN, in that order: 0.582 and 0.176.
For the sequence PDKRNLLIKLLN, the protein stability index in the series with Saccharomyces cerevisiae [1] is 0.608; with Saccharomyces cerevisiae [2] it was 0.124.
For PDKRNNLIKLLN, in that order: 0.589 and 0.155.
For PDKRNSLIKLLN, in that order: 0.723 and 0.163.
Turning to PDKRNTLIKLLN, the protein stability index with Saccharomyces cerevisiae [1] was 0.599; in the series with Saccharomyces cerevisiae [2] it was 0.108.
For PDKVNHLIKLLN, in that order: 0.658 and 0.129.
Consider PLKRNHLIKLLN, for which the protein stability index stood at 0.622 in the series with Saccharomyces cerevisiae [1] and 0.135 with Saccharomyces cerevisiae [2].
